Key:
[1] = molecular target: T1, 前列腺特异性膜抗原 (PSMA) on LNCaP cells (UniProt Q04609 1-750, limits assumed); assay: cell ELISA (HRP-anti-M13, OD450) and immunofluorescence on fixed LNCaP cells (PSMA+) against MKN45 cells (PSMA-)
T1 construct: whole, on cells; Cells were fixed with 4% paraformaldehyde before the assay; also called prostate specific membrane antigen

[2] = molecular target: T2, PSMA胞外区蛋白 (重组表达的前列腺特异性膜抗原膜外区) (UniProt Q04609 44-750); assay: indirect phage ELISA, PSMA extracellular domain coated at 5 μg/mL, HRP-anti-M13 detection
T2 construct: extracellular domain; also called PSMA蛋白; PSMA抗原; not shown: His tag from vector pRAG2a (HisTrap purification, detected with His antibody)
T2 sequence (Q04609 44-750): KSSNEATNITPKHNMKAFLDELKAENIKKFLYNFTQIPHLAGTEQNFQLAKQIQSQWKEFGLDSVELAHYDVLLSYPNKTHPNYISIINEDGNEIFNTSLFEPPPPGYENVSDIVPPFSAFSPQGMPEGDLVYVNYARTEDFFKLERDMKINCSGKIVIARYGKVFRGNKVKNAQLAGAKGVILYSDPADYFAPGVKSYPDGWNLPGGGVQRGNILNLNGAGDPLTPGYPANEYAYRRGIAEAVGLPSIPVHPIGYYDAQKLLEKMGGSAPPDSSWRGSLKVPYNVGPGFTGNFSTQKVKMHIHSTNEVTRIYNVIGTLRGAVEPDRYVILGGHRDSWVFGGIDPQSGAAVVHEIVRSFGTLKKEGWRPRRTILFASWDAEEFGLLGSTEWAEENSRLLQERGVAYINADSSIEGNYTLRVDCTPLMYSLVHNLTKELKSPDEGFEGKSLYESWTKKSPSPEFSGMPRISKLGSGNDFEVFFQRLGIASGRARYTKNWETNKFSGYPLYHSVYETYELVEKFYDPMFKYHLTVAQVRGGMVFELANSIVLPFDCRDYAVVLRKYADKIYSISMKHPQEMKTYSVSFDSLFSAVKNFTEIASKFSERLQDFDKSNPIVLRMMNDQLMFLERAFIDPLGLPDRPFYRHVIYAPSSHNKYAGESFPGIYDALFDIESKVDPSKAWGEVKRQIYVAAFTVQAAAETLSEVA

T1 sequence (Q04609 whole entry): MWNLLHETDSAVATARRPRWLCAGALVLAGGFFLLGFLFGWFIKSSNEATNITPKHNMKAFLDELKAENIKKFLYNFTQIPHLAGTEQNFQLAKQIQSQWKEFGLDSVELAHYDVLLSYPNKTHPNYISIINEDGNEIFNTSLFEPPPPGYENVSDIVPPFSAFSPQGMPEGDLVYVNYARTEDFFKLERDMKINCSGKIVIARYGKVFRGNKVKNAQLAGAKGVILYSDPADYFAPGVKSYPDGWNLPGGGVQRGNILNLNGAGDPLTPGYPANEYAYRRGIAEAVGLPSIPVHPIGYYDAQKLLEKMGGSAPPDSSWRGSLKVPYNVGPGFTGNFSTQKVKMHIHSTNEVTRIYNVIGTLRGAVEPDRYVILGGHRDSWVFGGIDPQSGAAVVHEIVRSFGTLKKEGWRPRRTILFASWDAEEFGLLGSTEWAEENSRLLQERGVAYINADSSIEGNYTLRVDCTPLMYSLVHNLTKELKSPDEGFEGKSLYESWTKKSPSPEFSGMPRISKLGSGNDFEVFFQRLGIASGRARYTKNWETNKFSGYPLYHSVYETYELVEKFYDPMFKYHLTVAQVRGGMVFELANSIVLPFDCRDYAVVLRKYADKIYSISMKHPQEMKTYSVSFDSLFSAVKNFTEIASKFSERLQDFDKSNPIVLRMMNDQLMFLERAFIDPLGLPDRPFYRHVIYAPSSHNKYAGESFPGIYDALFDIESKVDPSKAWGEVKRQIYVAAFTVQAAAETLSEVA

binding result [1]: binds
binding result [2]: binds
B1: 抗前列腺特异性膜抗原单域重链抗体噬菌体阳性克隆 (VHH, not shown: large carriers)
VHH: QLQLVESGGGLVQAGGSLRLSCVVSGRPFSRYTMGWFRQAPGKERELVATIWRRGNTYYANYADAVTGRFTISRDNAKNTAYLQMNSLELEDTAIYYCAAGRTSWGQNPSEYGYWGQGTQVTVSS
notes: also called 针对前列腺特异性膜抗原的单域重链抗体阳性克隆; 展示本发明所述纳米抗体的噬菌体克隆
